Article PMC6085346, “A nuclear-encoded protein, mTERF6, mediates transcription termination of rpoA polycistron for plastid-encoded RNA polymerase-dependent chloroplast gene expression and chloroplast development”

B1: probe A (rpoA 3'-end, 122 bp) (dsDNA)
DNA 1: AATTTCTATTTTCCAGTCGAACCCATTTTAATTAATTAATTAAATTAATTAGAATTAGATATGTATCTAGGGAGAATTCATTTGGAAATGACTACTCCCTAGATACCTCCCTAGATACCCAC
DNA 2: GTGGGTATCTAGGGAGGTATCTAGGGAGTAGTCATTTCCAAATGAATTCTCCCTAGATACATATCTAATTCTAATTAATTTAATTAATTAATTAAAATGGGTTCGACTGGAAAATAGAAATT

Key:
[1] = target: T1, MBP-mTERF6.1 (without transit peptide) (Arabidopsis thaliana, UniProt Q9SZL6 25-333); assay: EMSA; 5 mM MgCl2; shift greatly reduced by 200-fold unlabeled probe A; EMSA 20 uL: LightShift binding buffer, 5 mM MgCl2, 1 mM EDTA, 2.5% glycerol, 0.05% NP-40, 50 ng/uL poly(dI-dC), 20 fmol probe (printed 'fmal'), 0.5 ug protein; settings: protein: recombinant; tags: N-terminal MBP (pMAL-c5X); label: 5' biotin
T1 sequence: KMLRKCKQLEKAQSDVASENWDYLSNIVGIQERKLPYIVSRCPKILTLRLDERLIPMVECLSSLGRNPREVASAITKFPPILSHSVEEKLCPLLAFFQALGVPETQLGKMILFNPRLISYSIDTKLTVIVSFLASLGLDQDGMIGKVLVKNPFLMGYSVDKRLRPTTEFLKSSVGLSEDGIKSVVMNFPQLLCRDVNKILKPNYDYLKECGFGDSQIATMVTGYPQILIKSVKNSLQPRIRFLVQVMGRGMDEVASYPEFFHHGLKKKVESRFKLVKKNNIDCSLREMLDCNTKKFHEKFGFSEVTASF

[2] = target: T1, MBP-mTERF6.1 (without transit peptide); assay: EMSA; 5 mM MgCl2; stronger shift than probe A; weakened by 1-, 2-, 8-fold competitor; EMSA 20 uL: LightShift binding buffer, 5 mM MgCl2, 1 mM EDTA, 2.5% glycerol, 0.05% NP-40, 50 ng/uL poly(dI-dC), 20 fmol probe (printed 'fmal'), 0.5 ug protein; settings: protein: recombinant; tags: N-terminal MBP (pMAL-c5X); label: 5' biotin

Binder | binding result [1] | binding result [2]
B1 | binds | 
AATTTCTATTTTCCAGTCGAAC (ssDNA) [probe B (22 nt, single strand)] |  | binds
